Measured values taken from the DeepSol protein solubility set.

test: soluble on expression in E. coli; label from the status in PepcDB or PDB records

| Sequence | soluble on expression in E. coli |
| --- | --- |
| METEIPVNEKETSFRRRVYTTIETLIDIENTDQLQEHLPHLHCLGWDEVVEERYVNKQCGFPSCQKAPPKITRNQMFEIDRKEGKIFEFRKQRAKFCSEMCYQKSSFVRKQLDEHPLWITGLTEARTQKVYEVPDESFVSPIAEKSEPVDSQFKKEPSIWLVTDSIIAKVQDMKLSEEAEEPKSLDPEDQDIEPFKLTDDDKDFIKSIKEFRNSNFGPPSTSKLLKTAPKPVLSAKDRKKEDEVLAKLRAKYGNKNALQKKPPILIEAQEIHSKLKTMEKAKEAWLVDLIKSWFTPETRKLVREGARPTGGAAEQILMDFLSGKKVDAEKLVNLPNLDKYNVKEKRLNIFLHSIRNHWMDLEARLHLTPTRRDILSRVASTFQLDSENITGWTKREINSIVIALFIVICLVDVELGDDYFKKDNASPELTAISNELCGLDSFQITGLHAAIKSQC | not soluble |
| METHLGWARSLEAVLSDRSALDAFQEWLIEYSSPQYLDLFFAIRAYERMALEGKPEKSQLSKSIYSKFLSSRTGNCEAIPKHFRAPIGEKLRHGTELEDRVFSHCSNFVQEFLRRQHEEFVGSEEFIEAFNKMSSTTADQLPGGSAHHSSHQNTMRRSSGTTSRKSAAQIATQLTAEALLKSKHDRHSKLGETKLEKMYPPTRQPYVCNATTSHNDSAVSSTFSGDTPEAHRMHSNRLRHIRDEQARENHGTMTLPRVEKASVDGQQWDHSSESGRRNFAMEITRKLLRHIDKVKLNDEMEKRIDDIEECRYTTIDMVNGTEPNDDLGKIDEDEELDDYLKMKMTDDSQKGSTNRSPKGPAGEPNKSGEGSKNTTLSPTNRAPAQLHNTIRVPRRKDYPRDTSASLKSHRHHQIDTNRMMSQSMCAPSYSSASSSYSRDSFAPAPTTRVNFAPGSSKSSQFYDSSGIGSMAPSAFSATSSLDYKDRRQHRKAPTPKKHSKIGKNLSNLITISYLGTDKIPVVTHVPNDGPMTLAEFKRHFALPNGAHQLFFKTECEDGSAPFQLLLIKDEHHLLPVFEGRIAAELR | not soluble |
| METNMTFVLKEFDALKSHFNDTVKIILQREKKDKIEDLPNPRKEELQFLTAVLNQLEAKIDELKPRSLASYVHVFYGAMLLVCKDVENNLRVMEKKENSLLFTRLMDGMGISDENIPTSEQNIMFYRGLNKFLNFIYESNDSRKGLKKEHFLQVLSLKKIYSLAKLSYEQEEAAENNALAKLTADGKTKANANSFHVEKPIDSSIVEQFKSWDEMKGALHQLILDELSDKNVAKISALSQARSAQLKFLQTMAEQLDKIPNQSLEPSEKMAILAGAMYIVRGQIAQEYGKDPLSNDKISATVIHTGLSTILHANADCCEDKEVLIAAANKFIRHMVIERPEQSNKKITKESVRENNMFSDIAGFQLISVLTLIQNMIKTCRTDAIEACVTKRKEELEALKPKKEGYSIASSVTGYVGSWFKKAPSMSEEDEEDDLKDQNTAEETSKPTV | not soluble |
| METPLVSIVSICWNRKDEICESLNNIRKIDYESLEIIVVDNGSTDGTVEKIEEDFKEVKLIKMPKNAGIEAYNVGFKSAAGEYIVILDDDSFPEKNSIKRMVKKFQKDDKLGMVAFDVRNYYNYDEVKKIDTEETSNDTAAESDEYIMAFNGAGAGVRTEVLKKAGFYPEEFFLYWNEQDTAFRILDMGYKIKFFADVIAYHKYSPKNRASWRAPFYYTRNAFFLVWKNYSTKAALKKTIELIYDCFYYSMEQKTNIYLKAMWNAFMNFNKIKGKRKVVDKYIEENLRIPLNVSFTFYKLEHHHHHH | not soluble |
| METQLSVQLGLDSLLTDFGLESVMNKQQQLFANMGLSDIGAPTPSTAIPVPNAHLHPSMVAGSDPSNPVVGFGFGSPSSTTSSSPPLSNSPTIEQQQHAQLTAMMQGIMSNNNVAVSNGSGVQVASVPAVHCSGCKSNETATSFCQDCNANLCDNCTMAHKFMHCFADHRVVSLTTPGTGSSSSSTSSSSSASSTSSHQVPSLGGKQSPDSMMLGSGKRSVLCLQHRASELVFFCVSCNLAICRDCTVSDHPSGTHQYELIADVADKQMLKMEQLIADARSKHADMLDMFKQVDNKQQVLTASLHNAHAQLEETVSNLINVIQDQKKTLAKDIDNAFAAKQIQLTMVDKRIQSMADKLSQTIEFSRRLMSFASPAEVMVFKQLLDTRLQLFLGFNPDTSGVLMTPCEIEYLGAAGLFNNSASTVSQLLGSVHGGSPINNAPAANDFLMPQAGLAPIGRAQSRIIPIEQNQLARSPPHHIAGSLPMNAYSDSNLLRPNKDFGGSSQSLGPFNPLGASVPGAAADPFSSQYDKWSLGVEPSVGGLLEGGNVDEEKFQTLFPPSRSQIKRQKMIYHCKFGEFGVMEGQFTEPSGVAVNGQGDIVVADTNNHRIQVFDKEGRFKFQFGECGKRDGQLLYPNRVAVNRTTGDFVVTERSPTHQIQVYNQYGQFLRKFGANILQHPRGVCVDSKGRIIVVECKVMRVIIFDMFGNILQKFSCSRYLEFPNGVCTNDKNEILISDNRAHCIKVFSYEGQYLRQIGGEGVTNYPIGVGINSLGEVVVADNHNNFNLTVFSQDGTMIGALESRVKHAQCFDVALVDDGSVVLASKDYRLYLYRFLPATSGQSTSSASSQI | not soluble |
| METSNFVKQLSSNNRKTRVNALEALKKYLTAKQFKENKQIEFNKLWKGLYYAMWFSDRPRPQQRLANELGELHGLYFDPKDNSTADELTTNDKAFIKFSRGFWKVMCFEWFNIDRYRLDKYLLLIRRVLFSQLKYLQSRNWDKKLVDEYIKKVLRWLPLSGSPKVYTGIPIHIVDILLDEWERLLKDGDEDDEDEENKEEEMRKIAESAKKTPLADVIAIFQDIVADYNNSKVLREKIKEDLFSDTRLVSWDILEGETQHNDSSNESEEEEEEEWKGF | not soluble |
| METTIFQFQKTFFTKPPKERVFVLHGEEQYLIRTFLSKLKEKYGENYTVLWGDEISEEEFYTALSETSIFGGSKEKAVVIYNFGDFLKKLGRKKKEKERLIKVLRNVKSNYVFIVYDAKLQKQELSSEPLKSVASFGGIVVANRLSKERIKQLVLKKFKEKGINVENDALEYLLQLTGYNLMELKLEVEKLIDYASEKKILTLDEVKRVAFSVSENVNVFEFVDLLLLKDYEKALKVLDSLISFGIHPLQIMKILSSYALKLYTLKRLEEKGEDLNKAMESVGIKNNFLKMKFKSYLKANSKEDLKNLILSLQRIDAFSKLYFQDTVQLLRDFLTSRLEREVVKNTSHGG | soluble |
| MEVAPEQPRWMAHPAVLNAQHPDSHHPGLAHNYMEPAQLLPPDEVDVFFNHLDSQGNPYYANPAHARARVSYSPAHARLTGGQMCRPHLLHSPGLPWLDGGKAALSAAAAHHHNPWTVSPFSKTPLHPSAAGGPGGPLSVYPGAGGGSGGGSGSSVASLTPTAAHSGSHLFGFPPTPPKEVSPDPSTTGAASPASSSAGGSAARGEDKDGVKYQVSLTESMKMESGSPLRPGLATMGTQPATHHPIPTYPSYVPAAAHDYSSGLFHPGGFLGGPASSFTPKQRSKARSCSEGRECVNCGATATPLWRRDGTGHYLCNACGLYHKMNGQNRPLIKPKRRLSAARRAGTCCANCQTTTTTLWRRNANGDPVCNACGLYYKLHNVNRPLTMKKEGIQTRNRKMSNKSKKSKKGAECFEELSKCMQEKSSPFSAAALAGHMAPVGHLPPFSHSGHILPTPTPIHPSSSLSFGHPHPSSMVTAMG | soluble |
| MEVDTSSSSSSEDECDPSSPSTAYIHSASVRLSVGTEEAARTVADVIKIDKEPRRSGARREVCSEGEFVVIKIESKDPKSLSKSIANAVDMIDLSVKTIKLCENLGKSKENGLKRKLSNGSQA | not soluble |
| MEVHDSDAYKADEKEEEKAEEVELDDSDVESEEESEDEESDEDPEDGPAPRRFETFDDAKQFWAEHFEEELIPNEDLDLNCYLFNPNGEPVVPQPVKRAMNPRSLFNNQRPVQVYHQRWELLPNEEAEHWKEMWVQMRDEQREQIEEQLIEFRYSSKS | not soluble |
| MEVIRSQKRTVSNDVVSTPTLPLYLTAPHMEVRLEEFELFAIDRLRVLKGVSDGLARARNPNEMDDLVETLWKEHMRLSNVSEMINKDIISHFVLRLVYCRSDELKKWFLSMETALFRHRFRLKKIEEQRAIVGEFGLPYKAVIGAELESLKERLGLVARSHGQISSDVENIYYKVPFEEVPDLVASRRVLLQKGFAFVAGTQLVSLVVTQFRSHLSKALILTNRKWTTTIREREKDRLTPIVEALSTSYLGPDYSQSNEYADISLKDIDQVSKSSFPLCMRHLFEKLREDHHLKHGGRMQLGLFLKLDDALAFWREEFTKKVGSERFDKEYAYAIRHNYGKEGKRTDYTPYACSKIITSAPGAGDHHGCPYRHFSEDNLKAALSRMGLSSRGMEDVMDKVRNRHYQLACTLTFEAVYGTSCDTGINHPNQYFEESQKILKSKTPAAPV | soluble |
